Measured values as given in US20100021384A1 (INSTITUT PASTEUR, published 2010).
Changes are numbered by the printed parent chain.

B1: VHH-E9 (VHH)
VHH: DVQLQVSGGGSVQPGGSLRLSCAASGFTFSNYAMYWLRQAPGKGIEWVSRIGPGGSHTEYADSVKGRFTISRDNAKNTLSLQMNSLKPEDTAVYYCAITQQGSGRGQGTQVTVSS
notes: Alpaca VHH selected by ribosome display against human GFAP; expressed in E. coli periplasm from pET22 with a His-tag and purified by IMAC; same molecule; also called anti-GFAP VHH-E9; native VHH-E9; not shown: His-tag (His6) from pET22 expression
B2: VHH-A10 (VHH)
VHH: DVQLRASGGGLVQPGGSLRLSCAASGFTFSNYAMYWLRQAPGKGIEWVSRIGPGGSHTEYADSVKGRFTISRDNAKNTLSLQMNSLKPEDTAVYYCAITQQGSGRGQETQVTVSSAAALEHHHHHH
notes: Alpaca VHH selected by ribosome display against human GFAP; expressed in E. coli periplasm from pET22 with a His-tag and purified by IMAC; also called anti-GFAP VHH-A10; not shown: His-tag from pET22 expression
B3: VHH-E3 (VHH)
VHH: B1 VHH with S25P, T69A, V93A, Q107R
notes: Alpaca VHH selected by ribosome display against human GFAP; expressed in E. coli periplasm from pET22 with a His-tag and purified by IMAC; also called anti-GFAP VHH-E3; not shown: His-tag from pET22 expression
B4: VHH-E9 SS-free (VHH, not shown: small tags and cut ends)
VHH: B2 VHH with R5Q, A6V, L11S, C22S, C96S, E108G
notes: VHH-E9 in which the disulfide-forming cysteines Cys 22 and Cys 96 were replaced by serine by site-directed mutagenesis; also called cysteine-free derivative of VHH-E9

Legend:
[1] = biological target: T1, GFAP (glial fibrillary acidic protein) from normal human brain (human, UniProt P14136 1-432); experiment: competition ELISA (Friguet method) after heating VHH at 75 C for 15 min and cooling at 4 C for 20 min
T1 construct: Purchased protein purified from human brain; coated on ELISA plates and used in solution for the KD determination; also called hGFAP
Description: (§1) The binding affinity of VHHs was determined as described by Friguet et al., 1985. Briefly, various concentrations of GFAP were incubated in solution overnight at 4° C. with a known quantity of VHH until equilibrium was reached. The VHH concentration had been determined by preliminary ELISA calibrations. 100 μl of solution was transferred to a well of a microtiter plate previously coated with GFAP and was incubated for 20 min at 4° C. The plates were washed with PBS-Tween 0.1%. VHHs were detected with rabbit anti-His tag antibodies (eBiosciences, San Diego, Calif.) followed by adding β-galactosidase-conjugated goat anti-rabbit Igs (Biosys, Compiègne, France) and 4-methylumbelliferyl β-D galactoside (Sigma Aldrich, Saint-Quentin Fallavier, France). Fluorescence was read at 460 nm, after excitation at 355 nm. KD was estimated from the slope of the regression curve obtained by plotting the reciprocal of the fraction of bound antibody versus the reciprocal of the molar concentration of antigen.
The heat denaturation of VHH-E9 was adapted to the method described in Olichon et al., 2007. VHHs are re-suspended in PBS/NaCl 300 mM and are heated for 15 minutes at 75° C. then cooled down at 4° C. for 20 minutes. The binding affinity of VHHs was determined by ELISA as described in Example 2 above.

[2] = biological target: T1, GFAP (glial fibrillary acidic protein) …; experiment: competition ELISA in solution (Friguet method), GFAP in solution, GFAP-coated plate
Description: as §1

[3] = biological target: T2, murine GFAP (in murine brain extracts and mouse brain astrocytes) (murine, UniProt P03995 1-430); experiment: Western blot of murine brain extracts
T2 construct: Endogenous intracellular protein; identified on blots by the 46 kDa band size and in tissue by astrocyte labelling; also called 46 Kda band
Description: Murine brain proteins (300 mg) were extracted in a potter with 600 μl of NuPage LDS sample buffer (Invitrogen) and kept for […] at 70° C. An aliquot was diluted 1:10 (v/v) with the same sample buffer then treated at 70° C. for 10 min. Following separation by polyacrylamide gel electrophoresis (PAGE) using NuPAGE Novex 4-12% Bis-tris gel (Invitrogen), semi-dry transfer onto Hybond-C (Amersham) and western blotting were carried out using the Xcell II blot module (Invitrogen). Prior to the immunochemical reaction, membranes were blocked in a 4% skimmed milk solution. […] Finally, peroxidase activity was visualized using a chemiluminescent kit (Amersham).
The specificity of the different VHHs was tested by ELISA and by Western blot. All the VHHs were specific for GFAP by ELISA (FIG. 5) and could detect at least 40 ng of protein.

[4] = biological target: T1, GFAP (glial fibrillary acidic protein) …; experiment: competition ELISA (Friguet method), GFAP

T2 sequence (P03995 whole entry): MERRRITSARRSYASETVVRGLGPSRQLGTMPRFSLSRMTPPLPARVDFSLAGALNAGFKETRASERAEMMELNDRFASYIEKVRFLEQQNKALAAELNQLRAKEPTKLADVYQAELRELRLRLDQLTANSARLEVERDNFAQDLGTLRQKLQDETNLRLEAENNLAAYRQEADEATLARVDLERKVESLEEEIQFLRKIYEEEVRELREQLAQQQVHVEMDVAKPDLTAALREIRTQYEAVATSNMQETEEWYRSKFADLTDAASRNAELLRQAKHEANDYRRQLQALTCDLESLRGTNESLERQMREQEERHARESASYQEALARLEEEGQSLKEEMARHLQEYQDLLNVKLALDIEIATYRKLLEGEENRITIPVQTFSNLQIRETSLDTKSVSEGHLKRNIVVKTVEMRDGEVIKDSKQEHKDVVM
T1 sequence (P14136 whole entry): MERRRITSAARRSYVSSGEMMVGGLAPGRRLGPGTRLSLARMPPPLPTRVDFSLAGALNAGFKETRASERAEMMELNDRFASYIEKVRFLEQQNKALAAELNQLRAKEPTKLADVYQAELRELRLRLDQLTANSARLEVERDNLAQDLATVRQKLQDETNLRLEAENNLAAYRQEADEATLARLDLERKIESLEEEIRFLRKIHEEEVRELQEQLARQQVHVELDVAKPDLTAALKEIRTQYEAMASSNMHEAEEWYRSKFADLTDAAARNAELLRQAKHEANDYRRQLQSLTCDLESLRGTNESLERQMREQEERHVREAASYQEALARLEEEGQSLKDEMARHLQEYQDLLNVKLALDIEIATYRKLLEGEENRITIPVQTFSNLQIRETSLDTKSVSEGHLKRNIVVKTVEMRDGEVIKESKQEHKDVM

Binder	Kd [1]	Kd [2]	binding result [3]	Kd [4]	fold reduction of affinity against native VHH-E9 [4]
B1	3.8 nM	5.6 nM	binds	–	–
B2	–	3.1 nM	binds	–	–
B3	–	–	binds	–	–
B4	–	–	–	12 nM	2 fold
